Residue numbers refer to the chain shown, from its start.
T1: TNF-like 1A (TL1A) (UniProt O95150 72-251)
T1 construct: Bought soluble TL1A; Biotinylated for yeast display, unlabelled in SPR and ELISA; also called TL1A cytokine
T1 sequence (looked up): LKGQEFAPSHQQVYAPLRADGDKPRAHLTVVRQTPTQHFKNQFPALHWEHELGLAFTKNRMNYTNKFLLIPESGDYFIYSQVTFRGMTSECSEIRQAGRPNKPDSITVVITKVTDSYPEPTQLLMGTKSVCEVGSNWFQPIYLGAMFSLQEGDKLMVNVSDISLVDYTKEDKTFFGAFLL

B1: WT DR3 extracellular domain fused with human IgG1 Fc (DR3-Fc WT) (Fc fusion)
chain: GGTRSPRCDCAGDFHKKIGLFCCRGCPAGHYLKAPCTEPCGNSTCLVCPQDTFLAWENHHNSECARCQACDEQASQVALENCSAVADTRCGCKPGWFVECQVSQCVSSSPFYCQPCLDCGALHRHTRLLCSRRDTDCGTCLPGFYEHGDGCVSCPTSTLGSCPERCAAVCGWRQIEGRMDRSVECPPCPAPPVAGPSVFLFPPKPKDTLMISRTPEVTCVVVDVSHEDPEVKFNWYVDGVEVHNAKTKPREEQYNSTYRVVSVLTVLHQDWLNGKEYKCKVSNKGLPSSIEKTISKAKGQPREPQVYTLPPSREEMTKNQVSLTCLVKGFYPSDIAVEWESNGQPENNYKTTPPVLDSDGSFFLYSKLTVDKSRWQQGNVFSCSVMHEGLHNHYTQKSLSLSPGK
notes: also called DR3 WT; soluble DR3 WT
B2: DR3 variant having SEQ ID NO: 2, fused with human IgG1 Fc (Fc fusion)
chain: B1 chain with I18Y, V47P, D51G, A65T, K93A, Q101S, L129P
notes: Linker and Fc as for m2
B3: DR3 variant having SEQ ID NO: 4, fused with human IgG1 Fc (Fc fusion)
chain: B1 chain with I18Y, D51G, K93E, L129P
notes: Linker and Fc as for m2
B4: DR3 variant having SEQ ID NO: 5, fused with human IgG1 Fc (Fc fusion)
chain: B1 chain with E38K, V47P, W56R, A65T, K93A, Q101S, L129P
notes: Linker and Fc as for m2
B5: DR3 variant having SEQ ID NO: 3, fused with human IgG1 Fc (Fc fusion)
chain: B1 chain with I18T, V47P, D51G, N61E, K93E, Q104P, L129P
notes: Linker and Fc as for m2
B6: DR3 (receptor, human, UniProt Q93038 25-199, looked up)
receptor extracellular domain displayed on the yeast surface as an Aga2 fusion: QGGTRSPRCDCAGDFHKKIGLFCCRGCPAGHYLKAPCTEPCGNSTCLVCPQDTFLAWENHHNSECARCQACDEQASQVALENCSAVADTRCGCKPGWFVECQVSQCVSSSPFYCQPCLDCGALHRHTRLLCSRRDTDCGTCLPGFYEHGDGCVSCPTSTLGSCPERCAAVCGWRQ
notes: extracellular domain, wild type, Aga2 fusion on EBY100 yeast
B7: DR3 variant having SEQ ID NO: 7, fused with human IgG1 Fc (Fc fusion)
chain: B1 chain with E38K, V47P, A65T, Q101S
notes: Tested as secreted Fc fusion in HEK293 medium (ELISA screen); Linker and Fc as for m2
B8: DR3 variant having SEQ ID NO: 6, fused with human IgG1 Fc (Fc fusion)
chain: B1 chain with H15Q, V47P, W56R, Q104P
notes: as for B7
B9: DR3 variant having SEQ ID NO: 9, fused with human IgG1 Fc (Fc fusion)
chain: B1 chain with H15Q, V47P, N61E, K93E, Q101S, Q104P, L129P
notes: as for B7

Each binder was assayed against T1, TNF-like 1A (TL1A) (assay: SPR (ProteOn XPR36), DR3-Fc immobilized, TL1A as analyte).
Method: The affinity of TL1A binding to DR3 variants was determined by surface plasmon resonance (SPR) measurements on a ProteOn XPR36 (Bio-Rad) instrument. All samples were in PBS containing 2 mM of DTT. A GLC Chip was air-initialized and activated with EDC/S-NHS. 5 μg from each of the DR3 variants were diluted in acetate buffer, pH 5.5, and immobilized onto the chip as a reference and BSA was also loaded onto the chip. After blocking available unbound sites on the chip with ethanolamine, the chip was washed with HBST buffer and rotated. TL1A was run at 30 μl/min for 300 sec at various concentrations (100, 50, 25, 12.5 and 6.25 nM), followed by a 10-min dissociation step. Binding parameters were determined with the Langmuir single binding site model, using the Bio-Rad's proteOn Manager software V2.1.2.05.
Next, the TL1A binding affinity to the different DR3 variants was characterized using surface plasmon resonance (Table 3).

Row | Kd [nM] | koff [s⁻¹] | kon [M⁻¹ s⁻¹] | Fold increase in Affinity (against WT) [fold] | Binder
1 | 44.9 | 0.00072 | 16000 | – | B1
2 | 8.26 | 0.000351 | 42600 | 5 | B2
3 | 9.83 | 0.000357 | 36300 | 4.6 | B3
4 | 26.9 | 0.000643 | 23900 | 1.7 | B4
5 | 6.79 | 0.000237 | 34900 | 6.6 | B5

What follows are binders tested against T1, TNF-like 1A (TL1A) (assay: flow cytometry of yeast displaying DR3 as Aga2 fusion, incubated with 0.2 uM biotinylated TL1A, detected with streptavidin-APC).
Method: FIGS. 3A-B. Screening for improved DR3 mutants using yeast surface display (YSD). […] Expression and TL1A binding are detected by fluorescent antibodies and streptavidin, respectively. (B) Flow cytometry histogram analysis of cell population displaying WT DR3, DR3 mutant library after two rounds (R2) and three rounds of enrichment (R3) for binding to TL1A. Cell population that lacks surface display is shown in black. Analysis of cells was performed following incubation with 0.2 μM of TL1A.
Briefly, EBY100 cells transformed with plasmid pCTCON containing the desired clone were grown in SDCAA media (20 g […], 6.7 g yeast nitrogen base, 5 g casamino acids, 5.4 g Na2HPO4 and 8.56 g NaH2PO4*H2O) at 30° C. to logarithmic phase. Then, 2*10⁶ of cells were washed, resuspended in SGCAA induction media (similar to SDCAA but containing galactose instead of […]) and grown at 30° C. with shaking for an additional 18 hours. Induced cells (1*10⁶) were collected by centrifugation, washed with PBSF (PBS+1 g/L BSA) and incubated for 1 hour at […] with 0.2 μM TL1A (R&D Systems) that was biotinylated using biotin labeling kit (Pierce) according to manufacturer's procedure. […] The labeled cells were washed, resuspended with PBSF and analyzed by flow cytometry (FACS Calibur, BD).

Row | binding result | Binder
6 | binds | B6

Each binder was assayed against T1, TNF-like 1A (TL1A) (assay: ELISA screen, HEK293 medium with secreted DR3-Fc on captured TL1A).
Method: The plates were then washed with PBST and blocked by incubation with 150 μl of PBS supplemented with 3% skim milk for 1 hour. Following blocking, the plates were washed and incubated with 100 μl of media of HEK293T transfected with WT or DR3 mutants harvested 48 or 72 hours post transfection, ELISA plates were shaken for additional hour. DR3-Fc (R&D Systems) was added at a concentration of 2 μg/ml as a positive control, and PBS supplemented with 1% BSA served as a negative control. Plates were then washed with PBST, incubated with 100 μl of 0.05 μg/ml of biotinylated goat polyclonal α-DR3 antibodies (R&D Systems), followed by incubation with secondary peroxidase-conjugated streptavidin (Jackson, 1:10000 dilution). Finally, 100 μl of horseradish peroxidase (HRP) chromogenic 3,3′,5,5′-tetramethylbenzidine (TMB) substrate solution (Dako) were added. The reaction was stopped by the addition of 1 M sulfuric acid and recorded at 450 nm using a Tecan Infinite M200 plate reader.
To identify single DR3 mutant candidates with enhanced binding affinity for TL1A, the FACS-enriched library was sub-cloned into a mammalian vector containing leader peptide and fused with human IgG1 Fc. […] Thus, the mammalian based expression of soluble DR3 receptor offers the advantage of maintaining the native protein posttranslational modifications including glycosylation. To obtain high level of DR3 expression in mammalian cells, the leader peptide sequence was optimized (FIG. 4), transfection and expression conditions in HEK293F cells (see Experimental Procedures for details). To facilitate the screening of a relatively large number of DR3 mutants, cells were transfected in 24 plate format and the secreted DR3 was examined for TL1A interaction using ELISA. A fast and sensitive ELISA that is based on immobilizing TL1A on multi-well plates and detecting DR3 binding using specific antibodies was developed (FIG. 5).

Row | binding result | Binder
7 | binds | B7
8 | binds | B8
9 | binds | B9

— patent publication US20170114118A1 (NATIONAL INSTITUTE FOR BIOTECHNOLOGY I, published 2017)
